{
  "source": "the nanobody polyreactivity screen of Harvey et al. (2022)",
  "data": [
    {"assay": "yeast display, Sf9 membrane polyspecificity reagent, FACS + sequencing; frameworks hold sequencing errors", "method_in_brief": "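Galactose induction of a Saccharomyces cerevisiae BJ5465 synthetic nanobody display library ran 36–48 hours. The cells were then stained for 1 hour at 4 °C with 10% biotinylated, detergent-solubilized Sf9 membrane reagent, pulled down on streptavidin microbeads and FACS-sorted into low and high (top ~1%) gates on expression and reagent-binding fluorescence. Labels for polyreactivity follow the gate of origin.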", "values": [
      {"sequence": "QVQLVESGGGLVQAGGSLRLSCAASGFIFGNYVMGWYRQAPGKERELVAAITNGGGNTYYADSVKGRFTISRDNAKNTVYLQMNSLKPEDTAVYYCHPLRYYYWGQGTQVTVSS", "polyreactivity (PSR sort gate)": "high polyreactivity"},
      {"sequence": "QVQLVESGGGLVQAGGSLRLSCAASGFIFGQYAMGWYRQAPGKERELVAAISWSGGRTNYADSVKGRFTISRDNAKYTVYLQMNSLKPEDTAVSYCAARKGKYPQYTYGYWGQGTQVSVSS", "polyreactivity (PSR sort gate)": "high polyreactivity"},
      {"sequence": "QVQLVESGGGLVQAGGSLRLSCAASGFIFGRNAMGWYRQAPGKERELVAVISKRSGNTYYADSVKGRFTISRDNAKNTVYLQMNSLKPEDTAVYYCNAVDQKLLRYDYWGQGTQVTVSS", "polyreactivity (PSR sort gate)": "high polyreactivity"},
      {"sequence": "QVQLVESGGGLVQAGGSLRLSCAASGFIFGRNVMGWYRQAPGKERELVASISRSGGRTTYADSVKGRFTISRDNAKNTVYLLMNSLKPEDTAVYYCAKGQYQWERYVSHADYDWGQVTQVTVSS", "polyreactivity (PSR sort gate)": "high polyreactivity"},
      {"sequence": "QVQLVESGGGLVQAGGSLRLSCAASGFIFGRYAMGWYRQAPGKERELVAAISRSGGSTHYADSVKGRFTISRDNAKNTVYLQMNSLKQVDTAVYYCNTYLTIWGYFYGYDYWGQGTQVTVSS", "polyreactivity (PSR sort gate)": "high polyreactivity"},
      {"sequence": "QVQLVESGGGLVQAGGSLRLSCAASGFIFGRYARGWYRQAPVKERELVAAINWSGGSTYYADSVKGRFTISRDNAKNTVYLQMNSLKPEDTAVYYCAARTSRRDGGGSYDYWGQGTQVTVSS", "polyreactivity (PSR sort gate)": "high polyreactivity"},
      {"sequence": "QVQLVESGGGLVQAGGSLRLSCAASGFIFGSNAMGWYRQAPGKERELVAAISRSGGSTYYADTVKGRFTISRDNAKNTVYLQMNSLKPEDTAVYYCNVDLWPFVYSWWSYDYWGQGTQVTVSS", "polyreactivity (PSR sort gate)": "high polyreactivity"},
      {"sequence": "QVQLVESGGGLVQAGGSLRLSCAASGFIFGSNVMGWYRQAPGKERELVAAITSGSRTYYADSVKGRFTISRDNAKNTVYLQMNSLKPEDTAVYYCAKRNPIKYYGGGYWGQGTQVTVSS", "polyreactivity (PSR sort gate)": "high polyreactivity"},
      {"sequence": "QVQLVESGGGLVQAGGSLRLSCAASGFIFGSYAMGWYRQAPGKERELVAAISDSGDSTYYADSVKGRYTISRDNAKNTVYLQMNSLKPEDTAVYYCNRGYRWRRCENYYWGQGTQVTVSS", "polyreactivity (PSR sort gate)": "high polyreactivity"},
      {"sequence": "QVQLVESGGGLVQAGGSLRLSCAASGFIFGSYTMGWYRQAPGKERELVAAISSSVGRTYYADSVKGRFTISRDNAKNTVYLQMNSLKPEDTAVYYCAARRHGRVDYSQGSRESDYWGQGTQVTVSS", "polyreactivity (PSR sort gate)": "high polyreactivity"},
      {"sequence": "QVQLVESGGGLVQAGGSLRLSCAASGFIFGTYAMGWYRQAPGKEWELVAAISSGGSTFYADSVKGRFTISRDNEKNTVYLQMYSLKPEDTAVYYCAKEGGTYRIFNYWGQGTQVTVSS", "polyreactivity (PSR sort gate)": "low polyreactivity"},
      {"sequence": "QVQLVESGGGLVQAGGSLRLSCAASGFIFGVYAMGWYRQAPGKERELVAAITSSGTSTYYADSVKGRFTISRDNAKNTVYLQMNSLKPEDTAVYYCNKSGYIYHRKLWTPYYYWGQGTQGTVSS", "polyreactivity (PSR sort gate)": "low polyreactivity"},
      {"sequence": "QVQLVESGGGLVQAGGSLRLSCAASGFIFGWYAMGWYRQAPGKERELVAAISRSGGSTYYADSVKGRFTISRDNAMNTVYLQMNCLKPEDTAVYYCAAQRSYAYEYWGQGTQVTVSS", "polyreactivity (PSR sort gate)": "high polyreactivity"},
      {"sequence": "QVQLVESGGGLVQAGGSLRLSCAASGFIFGYNAMGWYRQAPGKERELVAAIDWSGTSTYYADSVKGRFTISRDNAKNTVYLQMNSLKPEDTAVYYCAADTSTWAHTRGYDYWGQGTQVTVSS", "polyreactivity (PSR sort gate)": "high polyreactivity"},
      {"sequence": "QVQLVESGGGLVQAGGSLRLSCAASGFIFGYNGMGWYRQAPGKERELVAYADSVKGRFTISRDNAKNTVYLQMNSLKPEDTAVYFCAADRGYVWRYDYWGQGTQVTVSS", "polyreactivity (PSR sort gate)": "low polyreactivity"},
      {"sequence": "QVQLVESGGGLVQAGGSLRLSCAASGFIFGYYAMGWYIPAPGKERELVAAISGSGGSTYYADSVKGRFTISRDNAKNTVYLQMNSLKPEDTAVYYCAAYGRAPGTSQRYDYRGQGTQVTVSS", "polyreactivity (PSR sort gate)": "high polyreactivity"},
      {"sequence": "QVQLVESGGGLVQAGGSLRLSCAASGFIFGYYAMGWYRQAPGKERELVAAISFSGDRTYYADSVKGRFTISRDNAKNTVYLQMNSLKPEDTAVYYCNAKRWGDYTQYRYNYWGQGTQVTVSS", "polyreactivity (PSR sort gate)": "high polyreactivity"},
      {"sequence": "QVQLVESGGGLVQAGGSLRLSCAASGFIFGYYAMGWYRQAPGKERELVAAISKSGGSTYYADSVKGRFTISRDNAKNTVYLQMNSLKPEDTAVYYCAARYTRPFGPFDYWGQGTQVTVSS", "polyreactivity (PSR sort gate)": "low polyreactivity"},
      {"sequence": "QVQLVESGGGLVQAGGSLRLSCAASGFIFGYYTMGWYRQAPGKERELVASITRGGSTNYADSVKGRFTISRDNAKNTVYIQMNSLKPEDTAVYYCAKRYAQTYSVSRYYYWGQGTQVTVSS", "polyreactivity (PSR sort gate)": "high polyreactivity"},
      {"sequence": "QVQLVESGGGLVQAGGSLRLSCAASGFIFGYYTMGWYRQAPGKERELVASITRGGSTNYADSVKGRFTISRDNAKYTVYLQMNSLNPEDTAVYYCAKRYAQTYSVSRYYYWGQGTQVTVSS", "polyreactivity (PSR sort gate)": "high polyreactivity"},
      {"sequence": "QVQLVESGGGLVQAGGSLRLSCAASGFIFHFNAMGWYRQAPGKERELVAAISRTGGTTYYADSVKGRFTISRDNAKNTVYLQMNSLKPEVTAVYYCAAYSTYVQHYDYWGQGTQVTVSS", "polyreactivity (PSR sort gate)": "high polyreactivity"},
      {"sequence": "QVQLVESGGGLVQAGGSLRLSCAASGFIFHLYGMAWYRQAPGKERELVAAISSGGRAYYADSVKGRFTISRDNAKNTVYLQMNSLKPEDTAVYDCAVYVAYLYSYYYWGQGTQVTVSS", "polyreactivity (PSR sort gate)": "low polyreactivity"},
      {"sequence": "QVQLVESGGGLVQAGGSLRLSCAASGFIFHLYSLGWYRQAPGKERELVAVISGGGSTYYADSVKGRFTISRDNAKNTVYLQMNSLKPEDTAVYYCNVGRYYRYATGGDYWGQGTQVTVSS", "polyreactivity (PSR sort gate)": "high polyreactivity"},
      {"sequence": "QVQLVESGGGLVQAGGSLRLSCAASGFIFHPYAMGWYRQAPGKERELVATITWSDDSTYYADSVKGRFTISRDNAKNTVYLQMNSLKPEDTAVYYCAARHKQHNRYDYWGQGTQVTVSS", "polyreactivity (PSR sort gate)": "low polyreactivity"},
      {"sequence": "QVQLVESGGGLVQAGGSLRLSCAASGFIFHRYAMGWYRQAPGKERELVASITRSGGSTYYADSVKGRFTISRDNAKNTVYLQMISLKPEDTAVYYCAAQLPSYYKYPRHDYWGQGTQVTVSS", "polyreactivity (PSR sort gate)": "high polyreactivity"},
      {"sequence": "QVQLVESGGGLVQAGGSLRLSCAASGFIFIFYAMGWYRQAPGKERELVAGISWSSSSTYYADSVKGRFTISRDNAKNTVYLQMNSLKPEDTAVYYCAKDGRSVSGEYDYWGQGTQVTVSS", "polyreactivity (PSR sort gate)": "low polyreactivity"},
      {"sequence": "QVQLVESGGGLVQAGGSLRLSCAASGFIFITVNAMGWYRQAPGKEREFVAAITRSGTGTYYADSVKGRFTISRDNAKNTVYLQMNSLKPEDTAVYYCAAEWSEESDYWGQGTQVTVSS", "polyreactivity (PSR sort gate)": "low polyreactivity"},
      {"sequence": "QVQLVESGGGLVQAGGSLRLSCAASGFIFITVNAMGWYRQAPGKEREFVAAITRSGTGTYYADSVKGRFTISRDNAKNTVYLQMNSLKPVDTAVYYCAADATSTGAYDYWGQGTQVTVSS", "polyreactivity (PSR sort gate)": "low polyreactivity"},
      {"sequence": "QVQLVESGGGLVQAGGSLRLSCAASGFIFITYAMGWYRQAPGKEMELVAAITYSDGSTYYADSVKGRFTISRDNAKNTVYLQMNSLKPEDTAVYYCAADSSTFPADYYWGKGTQVTVSS", "polyreactivity (PSR sort gate)": "low polyreactivity"},
      {"sequence": "QVQLVESGGGLVQAGGSLRLSCAASGFIFIVNAMGWYRQAPGKERELVATISSSGDITRYADSVKARFTISRDNAKNTVYLQMNSLKPEDTAVYYCAARLWTGYWGQGTQVTVSS", "polyreactivity (PSR sort gate)": "high polyreactivity"},
      {"sequence": "QVQLVESGGGLVQAGGSLRLSCAASGFIFIYNAMGWYRHAPGKERELVATINWSGGDSTYYADSVKGRFTISRDKAKNTVSLQMNSLKPEDTSVYYCATLSWYQQAYDYWGQGTQVTVSS", "polyreactivity (PSR sort gate)": "low polyreactivity"},
      {"sequence": "QVQLVESGGGLVQAGGSLRLSCAASGFIFIYNAMGWYRQAPGKERELVAAISRSGGSTYYADSVKGRFTISRDNAKNTVYLHMNSLKPEDTAVYYCNARPGSRYYGYRLYYYWGQGTQVTVSS", "polyreactivity (PSR sort gate)": "high polyreactivity"},
      {"sequence": "QVQLVESGGGLVQAGGSLRLSCAASGFIFIYNAMGWYRQAPGKERELVAAITGSDGGTFYADSVKGRFTISRDNAKNTVYLQMNSLKPEDTAVYYCNADIVGFQWGYDYWGQGTQVTVSS", "polyreactivity (PSR sort gate)": "low polyreactivity"},
      {"sequence": "QVQLVESGGGLVQAGGSLRLSCAASGFIFIYNAMGWYRQAPGKERELVAAITGSDGGTFYADSVKGRFTISRDNAKNTVYLQMNSLKPEDTAVYYCNADNGSRQSRDGYESWGQGTQVTVSS", "polyreactivity (PSR sort gate)": "low polyreactivity"},
      {"sequence": "QVQLVESGGGLVQAGGSLRLSCAASGFIFKGYAKGWYRQAPGKERELVAAINTSGGSTYYAVSVKGRFTISRDNAKNTVYVQMNSLKPEDTAVYYCNVRNRSRPYLPFWPDDNWGQGTQVTVSS", "polyreactivity (PSR sort gate)": "high polyreactivity"},
      {"sequence": "QVQLVESGGGLVQAGGSLRLSCAASGFIFKIYAMGWYRQAPGKERELVAAMSSGDNTNYADSVKGRFTISRDNAKNTVYLQMNSLKPEDTAVYYCAADWSPTAASDYWGQGTQVTVSS", "polyreactivity (PSR sort gate)": "high polyreactivity"},
      {"sequence": "QVQLVESGGGLVQAGGSLRLSCAASGFIFKSNAMGWYRQAPGKERELVAAITRSGGRTYYADSVKGRFTISRDNAKNTVYLQMNSLKPEDTAVYYCNAKLYTGSFDYWGQGTQVTVSS", "polyreactivity (PSR sort gate)": "high polyreactivity"},
      {"sequence": "QVQLVESGGGLVQAGGSLRLSCAASGFIFKSYAMGWYRQAPGKERELVAAISGRGGSTYYADSVKGRFTISRDNAKNTVYLQMNSLKPEDTAVYYCNVGPSTYYQYDYWGQGTQVTVSS", "polyreactivity (PSR sort gate)": "high polyreactivity"},
      {"sequence": "QVQLVESGGGLVQAGGSLRLSCAASGFIFKVYAMGWYRQAPGKERELVDAISRSGGSTYYADSVKGRFTISRDHAKNTVYLQMKSLKPEDTAVYYCAADYDVTGDSDYWGQGTQVTVSS", "polyreactivity (PSR sort gate)": "low polyreactivity"},
      {"sequence": "QVQLVESGGGLVQAGGSLRLSCAASGFIFKWNAMGWYRPAPGKERELVAAISWHGGSTNYADSVKGRFTISRDNAKNTVYLQMNSLKQEDTAVYYCAKQQSPYYPSTLDYWGQGTQVTVSS", "polyreactivity (PSR sort gate)": "high polyreactivity"},
      {"sequence": "QVQLVESGGGLVQAGGSLRLSCAASGFIFKYYAMGCYRQAPGKERELVAVISRSGGGTYYADSVKGRYTISRDHAKNTVYLQMNSLKTEDTAVYYCAAERSSGFDYWGQGTQVTVSS", "polyreactivity (PSR sort gate)": "high polyreactivity"},
      {"sequence": "QVQLVESGGGLVQAGGSLRLSCAASGFIFLAYTMGWYRPAPGKERELVAAISTSGGSTYYADSVKGRFTISRDNAKNTVYLQMNILKPEDTAVYYCAARYRWGRYDYWGQGTQVTVSS", "polyreactivity (PSR sort gate)": "high polyreactivity"},
      {"sequence": "QVQLVESGGGLVQAGGSLRLSCAASGFIFLDYAMGWYRQAPGKERELVAAISRSGGSTYYADSVKGRFTISRDYAKNTVYLQMNSLKPEDTAVYYCAAAFYGGGTWDSYWGQGTQVTVSS", "polyreactivity (PSR sort gate)": "high polyreactivity"}
    ]}
  ]
}
